B1: SACE_4237 (Saccharopolyspora erythraea NRRL 2338) (protein)
chain: MFSRVAIVNRGEAAMRLVHAVRELAAETGERIETVALHTDVDRTATFVREADLRYDLGPASARPYLDLGVLERALVESGADAAWVGWGFVAEDPAFAELCEKIGVTFIGPSAEAMRRLGDKIGAKLLAEEVGVPVAPWSRGEVSDLDGARRAADEIGYPLMLKATAGGGGRGIRVINSEQELTEAYERTRMEAERAFGNGAVFLERLVTGARHVEVQVIADGQGTAWALGVRDCSVQRRNQKIIEESASPVLTAEQSRELKAAAERLARAVEYRGAGTVEFLYHPGEELFAFLEVNTRLQVEHPITEATTGVDLVKAQLHVASGGRLEGEPPAELGHAVEARLNAEDPDRDFAPSPGRIVRLSLPAGPGIRVDTGVSEGDTIPADFDSMIAKIIAYGSDREQALGRLRRAMAQTTVIVAGGATNKSFVLDLLNRDEVVDGSADTGWIDRERAAGGLRSHQHSAIALAAAAVEAYEDAELAARQQFLSTAHGGRPQVRHETGRPLELKLRDESYRVLVARVGHQRYRIGIDTGSQQHTADVEIERFDSHTGQITVNGQRFRLVTDTHGPVHLVEVDGVTHRVSQDEGGVLRSPAPALVVATPVEIGEEVEAGAPVLVLESMKMETVLRAPFRARLRERMVAAGSQIETGAPLLRLEPVGDQEAAEEAEAATPVELALPVAPSARDAHERAARGLQDLRSVLLGFDVDPHDEQRVLDDYLAARAELVAAGQRPLDGEIELLQVFADLSELSRNRPAGEEAKADTRVHSPREYFHTYLQSLDVERAGLSETFQQRLLRVLGHYGVEGADRTPELEEAVFRIFLAQQRAASDAAVVTTLLGHWLTEVPPPGETRTAAGLVLEHLVAATQLRFPVVCDLARTVVFHWFAQPMLRRNRAEVYSVVRGHLRHLDAHPDAHDRAERIAEMVGTAEPLVRLLGQRIGREGTDPAPLLEVLTRRYYGNRALDGVRTTRVAGSTAVVAEYQDEHPRVVATAVDFAALPEAVRAIGELAADGDLVADIYLTWADQPEDSDAMAAELGEVLGAQGLPGQVGRITTTVAGRSGAVMHHHFTFEPASEGVAEQRLIRGLHPLIAERLQLRRWRDFDLTRLPSADEEVYLFRSVARENPSDERFVAMAQVRDLTPLRDDEGRLVALPAAEGVLTGCLDAIRKVQARVPARQRSSTNRIVIYVWPPVELTSEELRALGRRVLPTTAGAGLEEVLFLGRRRDRETGELREVAVRVGYEAGSEPRMSVGEPPTERIEPLNSYRQKVLRAAKRGTVYPYELTGMLAGGQGTFVEHDLDADGVLVPVDRPKGQNSAAIVAGVVTTPTERHPEGVTRVVLLGDPTKSLGALSEPECSRVIAALDLAERMRVPLEWFALSAGARISMDSGTENMDWVAAALKRIVHFTQDGGEINVVVAGINVGAQPYWNAEATMLMHTKGILVMTPDSAMVLTGKQSLDFSGGVSADDNFGIGGYDRVMGPNGQAQYWAPNLAAAREVLMSHYDHTYVVPGEEAPRQAATTDPRDRDICDYPHEFAGSDFTTVGEIFSATANPDRKKSFDIRTVMRALADQDHPVLERWAGMADADTAAVQDVHLGGHPVCLLGIESRPVPRHGFPPTDGPDTYTAGTLFPRSSKKAARAINAASGNRPLVVLANLSGFDGSPESMRKLQLEYGAEIGRAIVNFRGPIVFCVISRYHGGAFVVFSKALNPNMTVLAVEGSYASVIGGAPAAAVVFSGEVNDRTAKDQRVRDLEARLAEAGDADRTALTLELAETRRAVHAEKLGEVAAEFDRVHSVQRAVEVGSVDAIVRADELRPQIIEAIEKGMLPQ
notes: full-length gene, N-terminal His6 tag, E. coli BL21λ(DE3) with pCY216 (biotin ligase)
B2: SACE_4237 multidomain acyl-CoA carboxylase (enzyme, Saccharopolyspora erythraea, UniProt A4FHI1 1-1827, looked up)
chain: B1 chain
modifications: biotinylated (co-expressed biotin ligase from pCY216 to improve biotinylation; residue not stated)
notes: SACE_4237, multidomain acyl-CoA carboxylase (BC, BCCP, central region, CT) of Saccharopolyspora erythraea NRRL23338, about 200 kDa; gene amplified from chromosomal DNA with an NdeI site at the translational start codon and a SpeI site downstream of the stop codon; Eluted from size exclusion as a dimer (peak 1, 404 kDa) and a monomer (peak 2, 186.9 kDa); The row is of the protomer with itself; …

Experiments:
purified protein [1] = substrate: CC(=O)SCCNC(=O)CCNC(=O)[C@H](O)C(C)(C)COP(=O)(O)OP(=O)(O)OC[C@H]1O[C@@H](n2cnc3c(N)ncnc32)[C@H](O)[C@@H]1OP(=O)(O)O; assay: purified protein; type: biochemical, Saccharopolyspora erythraea; conditions: 3 mM ATP, 5 mM MgCl2, 50 mM NaH14CO3, 100 mM Hepes pH 7.5, 30 °C
purified protein [2] = substrate: CCC(=O)SCCNC(=O)CCNC(=O)[C@H](O)C(C)(C)COP(=O)(O)OP(=O)(O)OC[C@H]1O[C@@H](n2cnc3c(N)ncnc32)[C@H](O)[C@@H]1OP(=O)(O)O; assay: purified protein; type: biochemical, Saccharopolyspora erythraea; conditions: 3 mM ATP, 5 mM MgCl2, 50 mM NaH14CO3, 100 mM Hepes pH 7.5, 30 °C
[3] = molecular target: the molecule itself; assay: SEC; Superdex 200 10/300 GL in 50 mM Hepes pH 7.5, 150 mM NaCl, 20% glycerol; calibrated with molecular mass standards; two peaks, dimer (404 kDa) and monomer (186.9 kDa)

| Protein | Km (purified protein [1]) [mM] | Vmax (purified protein [1]) [µmol/min] | kcat (purified protein [1]) [s⁻¹] | kcat/Km (purified protein [1]) [M⁻¹ s⁻¹] | Km (purified protein [2]) [mM] | Vmax (purified protein [2]) [µmol/min] | kcat (purified protein [2]) [s⁻¹] | kcat/Km (purified protein [2]) [M⁻¹ s⁻¹] | stoichiometry N [3] |
| --- | --- | --- | --- | --- | --- | --- | --- | --- | --- |
| B1 | 0.168 ± 0.001 | 0.00043 | 0.143 ± 0.004 | 850 ± 30 | 0.098 ± 0.001 | 0.00016 | 0.052 ± 0.002 | 520 ± 40 |  |
| B2 |  |  |  |  |  |  |  |  | 2 |
